# ± gives the uncertainty stated by the source.
# B1: Dystrobrevin alpha, residues 235 to 294; numbered along this chain, Q9Y4J8 (parent)
# chain: ENVFHPVECSYCHSESMMGFRYRCQQCHNYQLCQDCFWRGHAGGSHSNQHQMKEYTSWKS
# Variants of: B1
# Assay: abundance fitness (aPCA) (normalised: wild type 0, dead -1); higher = more abundant; growth selection in yeast, the domain comes from the species named
# Conditions: Homo sapiens
row,Variant,abundance fitness
1,ENVFHPVECSYCHSESMMGFCYRCQQCHNYQLCQDCFWRGHAGGSHSNQHQMKEYTSWKS [R21C],-0.092 ± 0.16
2,ENVFHPVECSYCHSESMMGFFYRCQQCHNYQLCQDCFWRGHAGGSHSNQHQMKEYTSWKS [R21F],-0.188 ± 0.21
3,ENVFHPVECSYCHSESMMGFEYRCQQCHNYQLCQDCFWRGHAGGSHSNQHQMKEYTSWKS [R21E],-0.07 ± 0.23
4,ENVFHPVECSYCHSESMMGFGYRCQQCHNYQLCQDCFWRGHAGGSHSNQHQMKEYTSWKS [R21G],-0.15 ± 0.09
5,ENVFHPVECSYCHSESMMGFKYRCQQCHNYQLCQDCFWRGHAGGSHSNQHQMKEYTSWKS [R21K],0.047 ± 0.22
6,ENVFHPVECSYCHSESMMGFWYRCQQCHNYQLCQDCFWRGHAGGSHSNQHQMKEYTSWKS [R21W],-0.02 ± 0.28
7,ENVFHPVECSYCHSESMMGFTYRCQQCHNYQLCQDCFWRGHAGGSHSNQHQMKEYTSWKS [R21T],0.088 ± 0.096
8,ENVFHPVECSYCHSESMMGFDYRCQQCHNYQLCQDCFWRGHAGGSHSNQHQMKEYTSWKS [R21D],-0.436 ± 0.12
9,ENVFHPVECSYCHSESMMGFVYRCQQCHNYQLCQDCFWRGHAGGSHSNQHQMKEYTSWKS [R21V],-0.207 ± 0.081
10,ENVFHPVECSYCHSESMMGFYYRCQQCHNYQLCQDCFWRGHAGGSHSNQHQMKEYTSWKS [R21Y],-0.394 ± 0.45
11,ENVFHPVECSYCHSESMMGFLYRCQQCHNYQLCQDCFWRGHAGGSHSNQHQMKEYTSWKS [R21L],0.058 ± 0.11
12,ENVFHPVECSYCHSESMMGFRLRCQQCHNYQLCQDCFWRGHAGGSHSNQHQMKEYTSWKS [Y22L],-0.3 ± 0.063
13,ENVFHPVECSYCHSESMMGFRNRCQQCHNYQLCQDCFWRGHAGGSHSNQHQMKEYTSWKS [Y22N],-0.364 ± 0.27
14,ENVFHPVECSYCHSESMMGFRRRCQQCHNYQLCQDCFWRGHAGGSHSNQHQMKEYTSWKS [Y22R],-0.241 ± 0.083
15,ENVFHPVECSYCHSESMMGFRKRCQQCHNYQLCQDCFWRGHAGGSHSNQHQMKEYTSWKS [Y22K],-0.263 ± 0.095
16,ENVFHPVECSYCHSESMMGFRSRCQQCHNYQLCQDCFWRGHAGGSHSNQHQMKEYTSWKS [Y22S],-0.405 ± 0.085
17,ENVFHPVECSYCHSESMMGFRDRCQQCHNYQLCQDCFWRGHAGGSHSNQHQMKEYTSWKS [Y22D],-0.814 ± 0.15
18,ENVFHPVECSYCHSESMMGFRWRCQQCHNYQLCQDCFWRGHAGGSHSNQHQMKEYTSWKS [Y22W],-0.086 ± 0.069
19,ENVFHPVECSYCHSESMMGFRHRCQQCHNYQLCQDCFWRGHAGGSHSNQHQMKEYTSWKS [Y22H],-0.053 ± 0.29
20,ENVFHPVECSYCHSESMMGFRCRCQQCHNYQLCQDCFWRGHAGGSHSNQHQMKEYTSWKS [Y22C],-0.409 ± 0.15
21,ENVFHPVECSYCHSESMMGFRMRCQQCHNYQLCQDCFWRGHAGGSHSNQHQMKEYTSWKS [Y22M],-0.142 ± 0.15
22,ENVFHPVECSYCHSESMMGFRERCQQCHNYQLCQDCFWRGHAGGSHSNQHQMKEYTSWKS [Y22E],-0.675 ± 0.17
23,ENVFHPVECSYCHSESMMGFRGRCQQCHNYQLCQDCFWRGHAGGSHSNQHQMKEYTSWKS [Y22G],-0.658 ± 0.11

row,Variant,abundance fitness
1,ENVFHPVECSYCHSESMMGFRIRCQQCHNYQLCQDCFWRGHAGGSHSNQHQMKEYTSWKS [Y22I],-0.337 ± 0.14
2,ENVFHPVECSYCHSESMMGFRPRCQQCHNYQLCQDCFWRGHAGGSHSNQHQMKEYTSWKS [Y22P],-0.904 ± 0.32
3,ENVFHPVECSYCHSESMMGFRVRCQQCHNYQLCQDCFWRGHAGGSHSNQHQMKEYTSWKS [Y22V],-0.051 ± 0.075
4,ENVFHPVECSYCHSESMMGFRQRCQQCHNYQLCQDCFWRGHAGGSHSNQHQMKEYTSWKS [Y22Q],-0.754 ± 0.17
5,ENVFHPVECSYCHSESMMGFRARCQQCHNYQLCQDCFWRGHAGGSHSNQHQMKEYTSWKS [Y22A],-0.13 ± 0.07
6,ENVFHPVECSYCHSESMMGFRTRCQQCHNYQLCQDCFWRGHAGGSHSNQHQMKEYTSWKS [Y22T],-0.437 ± 0.11
7,ENVFHPVECSYCHSESMMGMRYRCQQCHNYQLCQDCFWRGHAGGSHSNQHQMKEYTSWKS [F20M],-0.004 ± 0.074
8,ENVFHPVECSYCHSESMMGTRYRCQQCHNYQLCQDCFWRGHAGGSHSNQHQMKEYTSWKS [F20T],0.15 ± 0.057
9,ENVFHPVECSYCHSESMMGYRYRCQQCHNYQLCQDCFWRGHAGGSHSNQHQMKEYTSWKS [F20Y],0.045 ± 0.091
10,ENVFHPVECSYCHSESMMGNRYRCQQCHNYQLCQDCFWRGHAGGSHSNQHQMKEYTSWKS [F20N],0.217 ± 0.065
11,ENVFHPVECSYCHSESMMGWRYRCQQCHNYQLCQDCFWRGHAGGSHSNQHQMKEYTSWKS [F20W],0.137 ± 0.078
12,ENVFHPVECSYCHSESMMGDRYRCQQCHNYQLCQDCFWRGHAGGSHSNQHQMKEYTSWKS [F20D],0.106 ± 0.071
13,ENVFHPVECSYCHSESMMGHRYRCQQCHNYQLCQDCFWRGHAGGSHSNQHQMKEYTSWKS [F20H],0.151 ± 0.086
14,ENVFHPVECSYCHSESMMGGRYRCQQCHNYQLCQDCFWRGHAGGSHSNQHQMKEYTSWKS [F20G],0.163 ± 0.046
15,ENVFHPVECSYCHSESMMGVRYRCQQCHNYQLCQDCFWRGHAGGSHSNQHQMKEYTSWKS [F20V],0.104 ± 0.043
16,ENVFHPVECSYCHSESMMGCRYRCQQCHNYQLCQDCFWRGHAGGSHSNQHQMKEYTSWKS [F20C],0.14 ± 0.069
17,ENVFHPVECSYCHSESMMGQRYRCQQCHNYQLCQDCFWRGHAGGSHSNQHQMKEYTSWKS [F20Q],0.134 ± 0.044
18,ENVFHPVECSYCHSESMMGIRYRCQQCHNYQLCQDCFWRGHAGGSHSNQHQMKEYTSWKS [F20I],0.061 ± 0.083
19,ENVFHPVECSYCHSESMMGSRYRCQQCHNYQLCQDCFWRGHAGGSHSNQHQMKEYTSWKS [F20S],0.237 ± 0.038
20,ENVFHPVECSYCHSESMMGPRYRCQQCHNYQLCQDCFWRGHAGGSHSNQHQMKEYTSWKS [F20P],0.307 ± 0.057
21,ENVFHPVECSYCHSESMMGARYRCQQCHNYQLCQDCFWRGHAGGSHSNQHQMKEYTSWKS [F20A],0.224 ± 0.054
22,ENVFHPVECSYCHSESMMGKRYRCQQCHNYQLCQDCFWRGHAGGSHSNQHQMKEYTSWKS [F20K],0.31 ± 0.076

# Source: the Human Domainome abundance scans (Beltran et al. 2025)
